Data: US20110294135, “COMPOSITIONS AND METHODS FOR ANALYTE DETECTION AND QUANTITATION” (BioDesic, LLC, published 2011)

How the values were obtained:
[1] = target: T1, LG-268-NRE (Protein LG fused to Zif268-NRE six-finger zinc finger protein) (Artificial Sequence); experiment: EMSA; 0.03 mM protein, Tris-glycine, room temp 15-60 min, 4-20% acrylamide gel, SYBR Gold; detector complex visible, further shifted by bovine IgG; details: tags: C-terminal His tag (pET20b(+)); N-terminal Protein LG fusion
Experimental: Stock solutions of LG-268-NRE (0.1 mM), the DNA detection moiety (500 ng/μl for a 50-mer and 1 μg/μl for an 80- or 100-mers), the target analytes (Bovine IgG antibodies (Equitech Bio, B60-0010; Final concentration of 1 mg/ml), and loading buffer (Jule Tris-Glycine running buffer; Jule Inc.; Catalog Number: TGNRB10X) were combined at the same time and mixed in a microfuge tube in a final reaction volume of 75 μl. Final concentrations were as follows: 0.03 mM for LG-268-NRE, 100 ng/75 μl for the 50-mer, and 10 μg/75 μl for the 80- or 100-mers. The combined mixture was then allowed to sit for 15-60 minutes at room temperature (approximately 20-22° C.). Appropriate volumes of the controls and the mixed solution were then loaded into wells of acrylamide (50 μl) or agarose gels (75 μl) and run as described below. The agarose gels and the staining buffer are made with Jule Tris-Glycine running buffer (Jule Inc.; Catalog Number: TGNRB10X). The binding reactions are also performed with a range of protein concentrations and/or in the presence of salt, e.g., 50-100 mM KCl or NaCl. Molecular weight standards were: Bioline Hyperladder 1: BIO-33053; Hyperladder 2: BIO-33054; and Hyperladder 3: BIO-33055.

[2] = target: T1, LG-268-NRE (Protein LG fused to …); experiment: EMSA; 0.03 mM protein, Tris-glycine, room temp 15-60 min, SYBR Gold; detector complex visible, further shifted by bovine IgG; details: tags: C-terminal His tag (pET20b(+)); N-terminal Protein LG fusion

| Binder | binding result [1] | binding result [2] |
| --- | --- | --- |
| 80-mer DNA detection moiety (dsDNA) DNA 1: TTTTGGGGTTGATAGAAAAGATAGAGGGTATAGTGAGTCGTATTAATTTCAGAATTCATTTCAAGGGTTCAGCGTGGGCG DNA 2: CGCCCACGCTGAACCCTTGAAATGAATTCTGAAATTAATACGACTCACTATACCCTCTATCTTTTCTATCAACCCCAAAA | binds |  |
| 100-mer DNA detection moiety (dsDNA) DNA 1: CCCACTTCATTGTGCCAAAGTTTTGGGGTTGATAGAAAAGATAGAGGGTATAGTGAGTCGTATTAATTTCAGAATTCATTTCAAGGGTTCAGCGTGGGCG DNA 2: CGCCCACGCTGAACCCTTGAAATGAATTCTGAAATTAATACGACTCACTATACCCTCTATCTTTTCTATCAACCCCAAAACTTTGGCACAATGAAGTGGG |  | binds |
